# In patent US20020058323A1, “Monkey urotensin II” (priority 2000, published 2002):
# T1: Macaca fascicularis Urotensin II receptor (Macaca mulatta, UniProt Q8HYC3)
# T1 construct: expressed in transfected cells
# T1 sequence (Q8HYC3 1-389): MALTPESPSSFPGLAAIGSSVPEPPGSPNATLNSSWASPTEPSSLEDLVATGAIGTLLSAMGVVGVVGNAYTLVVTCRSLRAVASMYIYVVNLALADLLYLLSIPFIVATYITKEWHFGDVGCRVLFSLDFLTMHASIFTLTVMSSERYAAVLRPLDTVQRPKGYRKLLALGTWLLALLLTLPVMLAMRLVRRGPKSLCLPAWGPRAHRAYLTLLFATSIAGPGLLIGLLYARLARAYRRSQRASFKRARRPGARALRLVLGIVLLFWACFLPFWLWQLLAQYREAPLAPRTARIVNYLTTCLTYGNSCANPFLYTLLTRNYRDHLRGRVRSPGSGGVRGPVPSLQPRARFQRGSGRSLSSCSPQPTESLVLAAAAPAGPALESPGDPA
# Target: T1, Macaca fascicularis Urotensin II receptor
# Assay: Radioligand binding with Scatchard plot analysis on a stable HEK 293 cell line transfected with the Urotensin II receptor
# Settings: radiolabeled ligand, single set of binding sites, transfected HEK 293 cells
# Excerpt: 1. A stable cell line was developed from HEK 293 cells transfected with mammalian pCDN vector of the Macaca fascicularis Urotensin II receptor.
molecule,measurement,value
"Macaca fascicularis Urotensin II: Macaca fascicularis Urotensin II polypeptide of the invention (SEQ ID NO:2, 125 amino acids), ligand of a G-protein coupled receptor (protein, MACACA FASCICULARIS) MYKLASCCLLFIGFLNPLFSLPLLDSGEVSLQLSAPHEDAPLTSEELERASLLQILPEMLLGAERGDSLRKADSSTNIFNPRGNLRKFQDFSGQDPDILLSHLLARIRKPYKKRETPDCFWKYCV",Kd,0.214 ± 0.065 nM
